Results on 41 sequences are retold here after the nanobody polyreactivity screen of Harvey et al. (2022).

The data set is described as follows: yeast display, Sf9 membrane polyspecificity reagent, FACS + sequencing; frameworks hold sequencing errors. In short, it runs like this: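 Genes from sorted yeast were amplified by colony PCR, read by MiSeq 2 × 250 sequencing and filtered on CDR length. These cells carried a synthetic nanobody library in Saccharomyces cerevisiae BJ5465 and were sorted by FACS into low and high (top ~1%) gates on anti-HA and streptavidin fluorescence. Polyreactivity is labelled according to the gate of origin.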
Regarding “QVQLVESGGGLVQAGGSLRLSSAASGRTFAVNAMGSYRQAPGKERELLAAISQRAGRTYYADSVKGRFTISRDNEKNTVYLQMNSLKPEDTAVYYCNVVGFRSRVGSRGYWGLGTQVTVSS”, the “polyreactivity (PSR sort gate)” value is “high polyreactivity”.

On to “QVQHVESGGGLVQAGGSLRLSCAASGRIFHWYAMGWYRQAPGKERELVAAIRWTGGSTYYADSVKGRFTISRDNAKNTVYLEMNSLKPEDTAVYYCAAKGYTGIFYEMDYWGQGTQVTVSS”, for which the “polyreactivity (PSR sort gate)” value was “low polyreactivity”.

As for “QVQLQLSGGDLVQAGRSLRLSCAASGTIYGLTSMGWYRQAQAKEREFVAAITDGGKTNYADSVKGRFTISRDNAKNTVYLQMIRLKPEDTAVYYCAVLFSDDAYYAYWGQGTQVTVSS”, the “polyreactivity (PSR sort gate)” value is reported as “low polyreactivity”.

In the case of “QVQLVESGGGLVQAGGSLRLSCAASGFTFSRNTMGWYRQAPGKERELVARISASGGSTYYADSVKGRFTISRDNAKNTVYLQMNSLKPEDTAVYYCAAVYRRYGGSRYDYWGQGTQVTVSS”, the “polyreactivity (PSR sort gate)” value is “high polyreactivity”.

Consider “QVQLVESGGGLVQAGGSLRLSCAASGSISGYYDMGWYRQAPGKEREFVAAISLSTTSTYYADSVKGRFTISRDNAKNTVYLQMNSLKPEDTAVYYCATDIVGPHFDYWGQGTQVTVSS”, for which the “polyreactivity (PSR sort gate)” value is “low polyreactivity”.

As for “QVQLVESGGGLVQAGGSLRLSCAASGRTFNRYGMGWYRQAPGKERELVASITSGGSTNYADSVKGRFTISRDNAKNSVYLQMNSLKPEDTAVYYCAKRSIGRYPRTYDYWGQGTQVTVSS”, the “polyreactivity (PSR sort gate)” value is on record as “low polyreactivity”.

Consider “QVQLVESGGGLVQAGGSLRLSCAASGIIFEGYAMGWYRQAPGKERELVAAISQSGGSTRYADSVKGRFTISRDNAKNTVYLQMNSLKPEDTAVYYCAKLSLSWDGYYQYDYWGQGTQVTVSS”, for which the “polyreactivity (PSR sort gate)” value is “low polyreactivity”.

Regarding “QVQLVESGGGLVQAGGSLRLSCAATGIILGPYAMGWYRPAPGKERELVAAISWRGGSTYNADSVKGRFTISRDNAKNTVYLQMNSLKPEDTAVYYCATASRTSRTGWAGYYCGQGTQVTVSS”, the “polyreactivity (PSR sort gate)” value was “high polyreactivity”.

For “QVQLVESGGGLVQAGGSLRLSCAASGSIFFGYAMGWYRQAPGKERELVAAISTRGGRSYYADSVKGRFTISRDNAKNTVYFQMNSLKPVDTAVYYCNAASLVQAYSHADERYDYWGQGTQVTVSS”, the “polyreactivity (PSR sort gate)” value was “high polyreactivity”.

On to “QVQLVESGGGLVQAGGSLRLSCAASGRILFGYAMGWYRQAPGKERELVADITSTGSTNYADSVKGRFTISRDNAKNTVYLQMNSLNPEDTAVYYCNARRESYYQRYRVDYWGQGTQVTVSS”, for which the “polyreactivity (PSR sort gate)” value is listed as “low polyreactivity”.

In the case of “QVQLLESGGGLVQAGGSLRLSCAASGSTFINNAMGWYRQAPGKERELVAAISGNADRTYYADSVKGRFTISRDYAKNTVYLQMISLKPEDTAVYYCNALSLLSDGAASVDQVTFDYWGQGTQVTVSS”, the “polyreactivity (PSR sort gate)” value is “low polyreactivity”.

On to “QVQLVESGGGLVQAGGSLRLSCAASGRIWYYAMGWYRQAPGKERELVAAISFSGGTTYYADSVKGRFTISRDNAKNTVYFPMNSLKPEDTGVYYCNKVSVGRYKRDYWGQGTQVTVSS”, for which the “polyreactivity (PSR sort gate)” value is listed as “high polyreactivity”.

In the case of “QVQLVESGGGLVQAGGSLRLSCAASGSTFGSYGMGWYRQSPGKERELVAGITSAGSTYYADSVKGRFTISRDNAKNTVYLQMNSLKPEDTAVYYCNARSGIVWYYDNDYWGQGTQVTVSS”, the “polyreactivity (PSR sort gate)” value is “low polyreactivity”.

On to “QVQLVESGGGLVQAGGSLRLSCAASGRIFKYYAMGWYRQAPGKERELVATITSGGRTNYADSVKGRFTISRDNAKNTVYLQMNSLKPEDTAVYYCARRPPASSRYDYWGQGTQVTVSS”, for which the “polyreactivity (PSR sort gate)” value was “high polyreactivity”.

As for “QVQLVESGGGLVQAGGSLRLSCAASGRILNTYTMGWYRQAPGKERELVAAITSRGGSTYYADSVKGRFTISRDNAKNTVYLQMNSLKPEDTAVYYCAAGYPYDYWGQGTQVTVSS”, the “polyreactivity (PSR sort gate)” value is “high polyreactivity”.

Turning to “QVQLVESGGGLVEAGGSLRLSCAASGFTFYHNAMGWYRPAPGKERELVAAISSGGTTNYADSVKGRFTISRDNAKNTVYLQMNSLTPEDTAVYYCAARGWGPTRAYDYWGQGTQVTVSS”, the “polyreactivity (PSR sort gate)” value is on record as “high polyreactivity”.

For “QVQLVESGGGLVQAGGSLRLSCAASGSTFTRNAMGWYRQAPGKERELVAAISSSGGRTYYADSVKGRFTISRDNAKNTVYLQMNSLKPEDTAVYYCAAGIRTSAGYDYWGQGTQVTVSS”, the “polyreactivity (PSR sort gate)” value was “high polyreactivity”.

“QDQLVESGGGLVQAGGSLRLSCAASGLTFAIYAMGCYRPAPGKERELVAGITWNTGRTYYADSVKGRFTISRDNAKNTVYLQMNSLNPEDTAVYYFAGRFVSRSVRGEATKYDYWGQGTQVTVSS”: the “polyreactivity (PSR sort gate)” value is recorded as “high polyreactivity”.

As to “QVQLVESGGGLVQSGGSLRLSSASSGRTFSGYVMGWYRQAPGKEREFVAVISRGGSTYYADSVKGRFTISRDNAKNTVYLQMNSLKPEDTAVYYCAGRLTYTGGQGAYDYWGQGTQVTVSS”, the “polyreactivity (PSR sort gate)” value is “high polyreactivity”.

Regarding “QVQLVESGGGLVQAGGSLRLSCAASGIIFAWYAMGWYRQAPGKERELVAAITSRGGSRTFYADSVKGRFTISRDNAKNTVYLQMNSLKPEDTAVYYCAVVTRAHPEDYWGQGTQVTVSS”, the “polyreactivity (PSR sort gate)” value was “high polyreactivity”.

As for “QVQLVESGGGLVQAGGSLRLSCAASGRIFFSNAMGWYRQAPGKERELVASITGGDDTNYADSVKGRFTISRDNAKNTVYLQMNSLKPEDTAVYYCAARAIPSYRWVYRFAPKYDYWGQGTQVTVSS”, the “polyreactivity (PSR sort gate)” value is “low polyreactivity”.

“QVQLVESGGGLVQAGGSLRLSCAASGRIFAVYAMGWYRQAPGKERELVAAIRWSGVRTYYADSVTGRFTISRDTAKKTVYLQMNSLKPEDTAVYYCAADYSGQYYSPVSYLYDYWGQGTQVTVSS”: the “polyreactivity (PSR sort gate)” value is “high polyreactivity”.

Take “QVQLEESGGGLVQAGGSLRFSCAASGRIYRYAMGWYRQAPGKERELVASITYSGGSTYYADSVKGRFTISRDNAKNTVYLQMNSLKPEDTAVYYCAASTRHVHYGYWGQGTQVTVSS”: the “polyreactivity (PSR sort gate)” value was “high polyreactivity”.

“QVQLVESGGGLVQAGGSLRLSSAASGIIFFFYAMGWYRQAPGKERELVAVITGSGDSTFYADSVKGRFTISRDNAKNTVYLQMNSLKPEDTAVYYCNARQVSGGYYYWGQGTQVTVSS”: the “polyreactivity (PSR sort gate)” value is listed as “low polyreactivity”.

For the sequence “QVQLVESGGGLVQAGGSLRLSCAASGSIFSVNTMGWYRQAPGKQRELVAAISESGDGTYYADSVKGRFTISRDNAKNTVYLQMNSLKPEDTAVYYCNADRQKGGGYYPHEFDYWGQGTQVTVSS”, the “polyreactivity (PSR sort gate)” value was “low polyreactivity”.

Take “QVQLVESGGGLVQAGGRLRRICAASGRIYSRYTMGWYRQAPGKERQLVAVITSGGSTYYADSVKGRFTISRDNAKNTVYLQMNSLKPDDTAVYYCNAVRFTYGGYLRRYDYWGHGTQVTVSS”: the “polyreactivity (PSR sort gate)” value is listed as “high polyreactivity”.

For the sequence “QAQLQESGGSLVQAGGGLRLSCAASGYISVGSVMGWYRQAPSKERELVASIDQGANTNYADSVKGRFTISRNNAKNNVYLQMNSLKTEDTAVYYCATETTYILNYCGQGTQVTVSS”, the “polyreactivity (PSR sort gate)” value is “low polyreactivity”.

As to “QVQLVESGGGLVQAGGSLRLSCAASASIFDHYAMGCYRQAPGKARELVAAITWDGTSTYYADSVKGRFTISRDNAKNTVYLQMNSLKPEDTAVYYCADDFYPYSWEEVDYWGQGTQVTVSS”, the “polyreactivity (PSR sort gate)” value is “low polyreactivity”.

In the case of “QVQLVESGGGIVQAGGRLRLSWAASGNTFDYYAMGWYRQAPWKERELVAAITRGGSTNYADSVKGRFTISRDNAKNTVYLQRNSRKPEDTAVYYCAAEQRAPRGADDDYCGQGTQVTVSS”, the “polyreactivity (PSR sort gate)” value was “low polyreactivity”.

“QVQLVESGGGLVQAGGSLRLSCAASGGIFGYYVMGWYRQAPGKERELVAVITRGGSTNYADSVKGRFTISRDNAKNTVYLQMNSLKPEDTAVYYFAKDVPYRRVRSEYWGQGTQVTVSS”: the “polyreactivity (PSR sort gate)” value is “low polyreactivity”.

On to “QVQLVETGGGLVQAGGSLRLSCAASGFTFPNAMGWYRQAPGKERELVATISSSGGSTYYADSVKGRFTISRDNAKNTVYLQMNSLKPEDTEVYYCAASTRQYWIYRAYRDEYWGQGTQVTVSS”, for which the “polyreactivity (PSR sort gate)” value was “low polyreactivity”.

With “QVQLVESGGGLVQAGGSLRLSCAASGRTFVYNAMVWYRQAPGKEREFVAAISWRGGSTFYADSVKGRFTISRDNAKNTVYLQMNSLKPEDTAVYYCAAEGWYYRYDYWGQGTQVTVSS”, the “polyreactivity (PSR sort gate)” value was “high polyreactivity”.

In the case of “QVQLVESGGGLVQAGGSLRLSCAASGFNFGGNAMGWYRQAPGKERELVAAISGSGGSTYYADSVKGRFTISRDNAKNTVYLQMNSLKPEDTAVYYCAVKFPPRKSYGYYYWGQGTQVTVSS”, the “polyreactivity (PSR sort gate)” value is recorded as “high polyreactivity”.

Turning to “QVQLVESGGGLVQAGGSLRISCSASGGIFDPYAMGWYRQAPGKERELVAAITNSGGSTYYADSVKGRFTISRDNAKNTVYLQMNSLKPEDSAVYYCAAEGLYVGYDYWGHGTQVTVSS”, the “polyreactivity (PSR sort gate)” value is given as “low polyreactivity”.

Consider “QVHLVESGGGLVQAGGSLRLRCDASGSIFKPYARGWYRQAPGKERELVAGITAGGASTYYADSVKGRFTISRDNAKNTVYLQMNSLKPEDTAVYYCAAGDYQSGVRYDYWGQGTQVTVSS”, for which the “polyreactivity (PSR sort gate)” value is “low polyreactivity”.

Turning to “QVQLVESGGGLVQAGRSLLLICAASGSTFAYYAMGWYRQAPGKERELVAAINYRATRTYYADSVKGRFTISRDNAKNTVYLQMNSLKPDDTAVDYCIAEPAYYRSNRWPRFEYWGQGTQVTVSS”, the “polyreactivity (PSR sort gate)” value is given as “high polyreactivity”.

Regarding “QVQLVESGGGLVQAGGSLRLSCAASGRIFRSYAMGWYRQAPGKERELVAAISQRGGRTYYADSVKGRFTISRDNAKNTVYLQMNSLKPEDTAVYYCAKSNPKLGYYYLQGDLYDYWGQGTQVTVSS”, the “polyreactivity (PSR sort gate)” value is “low polyreactivity”.

Regarding “QVQHGESGGGLVQAGGSLRLSCAASGTTLAAYTMGWYRQAPGKERELVAAINSGGGTNYADSVKGRFTISRDNAKNTVYLQMNSLKPEDTAVYYCAKVVFVRGAPGYYWGQGTQVTVSS”, the “polyreactivity (PSR sort gate)” value is given as “high polyreactivity”.

As to “QVQLVESGGRLVQAGGSLRLSCAASGSILYIYAMGWYRQAPGKERELVAAISKNSADTYYADSVKGRFTISRDNAKNTVYLQMNSLKPEDTAVYYCAADVVKVAAYNYWGQGTQVTVSS”, the “polyreactivity (PSR sort gate)” value is on record as “low polyreactivity”.

Turning to “QVQIVESGGGLVQAGVSLRLSCAPSGFIFSVYAMGWYRQAPGKEMELVAGITRNGGITYYADSVKWRFTISRDNAKNTVYLQMNSLKPEDSAVYYCAAQAPKRRPFYGYYWGQGTQVTVSS”, the “polyreactivity (PSR sort gate)” value is recorded as “high polyreactivity”.

For “QVQLVESGGGLVQAGGSLRLSCAASGSILTPNAMGWYRQAPGKERELVATISKGGGRTYYADSVKGRFTISRDNAKNTVYLQMNSLKPEDTAVYYCAADARRNSPGNYWGQGTQVTVSS”, the “polyreactivity (PSR sort gate)” value is given as “high polyreactivity”.
